# According to patent US20250002574A1 (SUNSHINE LAKE PHARMA, published 2025):
# T1: IL-11 (UniProt P20809 22-199, limits assumed)
# T1 construct: also called IL-11 protein; IL-11 antigen
# T1 sequence (looked up): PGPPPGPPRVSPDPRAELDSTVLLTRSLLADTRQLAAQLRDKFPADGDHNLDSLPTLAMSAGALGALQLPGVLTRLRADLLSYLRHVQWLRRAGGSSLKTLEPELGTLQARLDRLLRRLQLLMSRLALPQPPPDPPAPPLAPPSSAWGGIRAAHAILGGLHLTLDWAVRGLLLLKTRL
# B1: 5-20E11-5F2 (hybridoma subclone) (antibody, human IgG1, kappa, V domains shown)
# VH: QVQLQQSGAELVRPGTSAKISCKASDYTFTNYWLGWLKQRPGHGLEWIGHIYPGGGYTNYNEKFKGKATLTADTSSSTAYMQLSSLTSEDSAVYFCARVRSGNDALDFWGQGTSVTVSS
# VL: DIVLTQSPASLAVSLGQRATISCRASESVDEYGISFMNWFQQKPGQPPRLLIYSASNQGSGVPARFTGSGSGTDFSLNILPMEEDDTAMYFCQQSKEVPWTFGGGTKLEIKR
# B2: 3-15D5-6A1 (antibody, human IgG1, kappa, V domains shown)
# VH: EVKLLESGGGLVQPGGSLKLSCAASGFDFRRYWMSWVRQAPGKGLEWIGQINPDSSMINYTPSLKDKFIISRDNAKNTLYLQMSEVRSEDTALYYCATYGHHATDSWGQGTSVTVSS
# VL: DIVLTQSPASLAVSLGQRATISCRASESVDSYGNSFMHWYQQKPGQPPKLLIYRASNLESGIPARFSGSGSRTDFTLTINPVEADDVATYYCQQSNEDPFTFGSGTKLEIKR
# B3: 3-2B5-3D2 (antibody, human IgG1, kappa, V domains shown)
# VH: QVQLKQSGPGLVLPSQSLSITCTVSGFSLTSYGVHWFRQSPGTGLEWLGVIWSGGITDYNATFIPRLSISKDNSKSQVFFKMNSLQADDTAIYYCARNFDGYYYSIDYWGQGTSVTVSS
# VL: DIQMTQTTSSLSASLGDRVTISCRASQDISNSLNWYQQKPDGTVKLLIYYTSRLHSGVPSRFTGSGSGTDYSLTISNLEQEDIATYFCQQGNTLPLTFGAGTKLELKR
# B4: 3-9E1-3A2 (antibody, human IgG1, kappa, V domains shown)
# VH: QIQLVQSGPELKKPGETVNISCRASGDTFTNYAVNWVKQAPGKGLKWMGWIDTYTGDPTYADDLKGRFAFSLETSATTAYLQINNLKNEDTATYFCAGDTWFAYWGQGTLVTVSA
# VL: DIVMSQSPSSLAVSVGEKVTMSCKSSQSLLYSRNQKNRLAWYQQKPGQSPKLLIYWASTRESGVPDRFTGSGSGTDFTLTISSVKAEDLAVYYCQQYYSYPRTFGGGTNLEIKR
# B5: 3-15D5-3A6 (antibody, human IgG1, kappa, V domains shown)
# VH: QVTLKESGPGILQPSQTLSLTCSFSGFSLSSSGMSVGWIRQPSGKGLEWLAHIWWSDDKSYNPALKSRLTISKDTSNNQVFLKIASVVTADTATYYCAREGSLGYGLDYWGQGTTLTVSS
# VL: DVLMTQTPLSLPVSLGDQASISCRSSQSIVHTDGNTYLEWYLQKPGQSPKLLIYKVSNRFSGVPDRFSGSGSGTDFTLKISRVEAEDLGVYYCFQGSHVPWTFGGGTKLEIKR
# B6: 5-20E11-1A2 (antibody, V domains shown)
# VH: QVQLQQPGAELVRPGTSVKMSCKASGYTFTSYWMHWVKQRPGQGLEWIGDIYPGSDSTNYHEKFKSKATLTVDTSSSTAYMQLSSLTSEDSAVYYCALDSSGYGFAYWGQGTLVTVSA
# VL: NIVMTQTPKFLLVSAGDRVTITRKASQSVSNDVVWYQQKPGQSPKLLMYYASYRYTGVPDRFTGSGYGTDFTFTISNVQAEDLAVYFCQQDYSSPFTFGSGTKLEIK
# B7: 3-7C9-1A6 (antibody, human IgG1, kappa, V domains shown)
# VH: QVQLKQSGPGLVQPSQSLSITCTVSGFSLTNYGVHWVRQSPGKGLEWLGAIWRGGSTDYNAAFMSRLSITKDNSKSQVFFKMNSLQPDDTAIYYCAKNLYGPAAMDYWGQGTSVTVSS
# VL: DIQMNQSPSSLSASLGDTITITCHANQNIYVWLSWYQQKPGNIPKLLIYEASNLHTGVPSRFSGSGSGTGFTLTISSLQPEDIATYYCQQGQSYPYTFGGGTKLEIKR
# Key:
# IL-11 [1] = target: T1, IL-11; assay: ELISA on IL-11, monoclonal hybridoma antibody
# IL-11 [2] = target: T1, IL-11; assay: flow, IL-11 + antibody on IL-11R cells; lower = more blocking
Binder,OD450 (IL-11 [1]) [OD450],FITC Mean (IL-11 [2]) [mean fluorescence]
B1,1.6,3110
B2,1.51,13600
B3,1.61,15300
B4,1.54,9070
B5,1.69,10900
B6,1.63,3640
B7,1.6,3150
